Assay results from publication PMC11077089, “Molecular basis of A. thaliana KEOPS complex in biosynthesizing tRNA t6A”.
Substitutions are numbered along the chain they refer to.

Key:
[1] = target: T1, KAE1;BUD32 N58R;CGI121;PCC1 (Arabidopsis thaliana;Arabidopsis …, UniProt O49653;Q94K14;Q6NMZ4;Q8GWD7 1-353;1-226;1-172;1-96, |N58R||); assay: MST; MST: 20 mM PBS pH 7.5, 300 mM NaCl, 0.05% Tween 20, 25 C, 50 nM RNA; EMSA: 20 mM Tris-HCl pH 7.5, 300 mM NaCl, 5 mM b-mercaptoethanol, 20% glycerol, agarose gel in Tris-glycine pH 8.0 (8.5 for FAM-RNA), 4 C; conditions: protein: recombinant;recombinant;recombinant;recombinant; tags: none (6His on partner PCC1);;6His (C-term);6His (C-term); chain copies: 2;2;2;2; label: 5' 6-FAM; tRNA cloverleaf
T1 sequence 1: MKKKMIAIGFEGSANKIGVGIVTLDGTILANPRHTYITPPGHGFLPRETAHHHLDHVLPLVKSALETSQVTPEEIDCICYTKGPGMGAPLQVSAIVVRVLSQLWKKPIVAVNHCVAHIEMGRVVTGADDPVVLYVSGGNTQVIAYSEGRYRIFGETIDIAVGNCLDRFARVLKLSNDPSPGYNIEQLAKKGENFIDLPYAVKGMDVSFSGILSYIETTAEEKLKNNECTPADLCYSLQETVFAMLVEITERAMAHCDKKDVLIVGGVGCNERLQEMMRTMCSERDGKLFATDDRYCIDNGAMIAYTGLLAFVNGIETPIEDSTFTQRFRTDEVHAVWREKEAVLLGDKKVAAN
T1 sequence 2: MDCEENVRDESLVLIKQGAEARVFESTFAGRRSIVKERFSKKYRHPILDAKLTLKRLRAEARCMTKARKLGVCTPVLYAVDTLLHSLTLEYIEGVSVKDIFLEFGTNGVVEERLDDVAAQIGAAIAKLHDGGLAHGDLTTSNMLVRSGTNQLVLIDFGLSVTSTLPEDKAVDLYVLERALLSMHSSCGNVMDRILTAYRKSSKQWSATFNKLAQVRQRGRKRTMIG
T1 sequence 3: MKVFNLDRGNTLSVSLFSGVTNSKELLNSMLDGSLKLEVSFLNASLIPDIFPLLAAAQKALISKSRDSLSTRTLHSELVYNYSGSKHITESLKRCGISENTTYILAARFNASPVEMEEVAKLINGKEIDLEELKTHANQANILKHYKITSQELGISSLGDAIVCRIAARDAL
T1 sequence 4: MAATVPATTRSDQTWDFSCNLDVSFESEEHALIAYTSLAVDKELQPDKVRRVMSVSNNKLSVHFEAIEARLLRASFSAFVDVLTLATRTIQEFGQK

[2] = target: T2, KAE1;BUD32 T162R;CGI121;PCC1 (Arabidopsis thaliana;Arabidopsis …, UniProt O49653;Q94K14;Q6NMZ4;Q8GWD7 1-353;1-226;1-172;1-96, |T162R||); assay: as above; conditions: protein: recombinant;recombinant;recombinant;recombinant; tags: none (6His on partner PCC1);;6His (C-term);6His (C-term); chain copies: 2;2;2;2; label: 5' 6-FAM; tRNA cloverleaf
T2 sequence 1: T1 sequence 1
T2 sequence 2: T1 sequence 2 with R58N, T162R
T2 sequence 3: T1 sequence 3
T2 sequence 4: T1 sequence 4

KAE1;BUD32;CGI121;PCC1 = target: T3, KAE1;BUD32;CGI121;PCC1 (Arabidopsis thaliana;Arabidopsis …, UniProt O49653;Q94K14;Q6NMZ4;Q8GWD7 1-353;1-226;1-172;1-96, |||); assay: MST; KEOPS dimer; MST: 20 mM PBS pH 7.5, 300 mM NaCl, 0.05% Tween 20, 25 C, 50 nM RNA; EMSA: 20 mM Tris-HCl pH 7.5, 300 mM NaCl, 5 mM b-mercaptoethanol, 20% glycerol, agarose gel in Tris-glycine pH 8.0 (8.5 for FAM-RNA), 4 C; conditions: protein: recombinant;recombinant;recombinant;recombinant; tags: none (6His on partner PCC1);none (6His on partner CGI121);6His (C-term);6His (C-term); chain copies: 2;2;2;2; label: 5' 6-FAM; tRNA cloverleaf
T3 sequence 1: T1 sequence 1
T3 sequence 2: T1 sequence 2 with R58N
T3 sequence 3: T1 sequence 3
T3 sequence 4: T1 sequence 4

[3] = target: T4, KAE1;BUD32;CGI121;PCC1 R70D/R73D/A74E (Arabidopsis thaliana;Arabidopsis …, UniProt O49653;Q94K14;Q6NMZ4;Q8GWD7 1-353;1-226;1-172;1-96, |||R70D;R73D;A74E); assay: MST; KEOPS monomer; MST: 20 mM PBS pH 7.5, 300 mM NaCl, 0.05% Tween 20, 25 C, 50 nM RNA; EMSA: 20 mM Tris-HCl pH 7.5, 300 mM NaCl, 5 mM b-mercaptoethanol, 20% glycerol, agarose gel in Tris-glycine pH 8.0 (8.5 for FAM-RNA), 4 C; conditions: protein: recombinant;recombinant;recombinant;recombinant; tags: none (6His on partner PCC1);none (6His on partner CGI121);6His (C-term);6His (C-term); chain copies: 2;2;2;2; label: 5' 6-FAM; tRNA cloverleaf
T4 sequence 1: T1 sequence 1
T4 sequence 2: T1 sequence 2 with R58N
T4 sequence 3: T1 sequence 3
T4 sequence 4: T1 sequence 4 with R70D, R73D, A74E

B1: 5'-6FAM-tRNAArgCCU (structured_RNA)
RNA: GCGCCUGUAGCUCAGUGGAUAGAGCGUCUGUUUCCUAAGCAGAAGGUCGUAGGUUCGACCCCUACCUGGCGCGCCA
- Kd [1]: 9.81 ± 2.73 µM
- Kd [2]: 10.5 ± 2.99 µM
- Kd (KAE1;BUD32;CGI121;PCC1): 18.1 ± 3.87 µM
- Kd [3]: 74.4 ± 13.5 µM
